# Reference: patent publication US20240417754
# System: T1, Pf80 large serine recombinase
# T1 sequence: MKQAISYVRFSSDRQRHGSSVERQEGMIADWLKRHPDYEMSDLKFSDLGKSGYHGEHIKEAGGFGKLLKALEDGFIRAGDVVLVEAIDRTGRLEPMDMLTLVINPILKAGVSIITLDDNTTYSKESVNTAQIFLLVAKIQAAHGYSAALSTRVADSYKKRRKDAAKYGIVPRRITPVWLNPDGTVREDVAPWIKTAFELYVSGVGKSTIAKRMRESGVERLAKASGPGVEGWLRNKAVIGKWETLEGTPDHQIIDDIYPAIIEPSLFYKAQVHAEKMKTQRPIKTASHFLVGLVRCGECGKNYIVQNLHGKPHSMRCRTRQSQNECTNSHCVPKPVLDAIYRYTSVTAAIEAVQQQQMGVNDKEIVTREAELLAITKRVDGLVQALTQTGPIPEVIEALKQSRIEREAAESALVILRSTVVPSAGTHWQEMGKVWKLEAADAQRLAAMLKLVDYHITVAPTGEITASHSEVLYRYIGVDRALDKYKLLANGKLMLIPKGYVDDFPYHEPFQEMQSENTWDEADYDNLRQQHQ
# Assay: cell_activity
# Settings: share of unique integration reads at predicted site
substance,measurement,value
Pf80 attH (FKBP2 exon),on-target integration read share,34.3%
